In one assay the target is T1, P01.3 peptide.
T1 chain: KKIVEILKKLVK
The assay is described as follows: concentration-dependent circular dichroism (222 nm, 40% TFE). (In general: CD spectra are sensitive to the conformation of chiral molecules.)

The next assay deals with T2, P01.1 peptide.
T2 chain: KKIVTILKKLVK
The description is as above.

No end group written: not given here.

One may read the Kd as the concentration at which binding is half-saturated. Ac-KKIVEILKKLVK-NH2 [P01.3 peptide] came in with a Kd in the assay with P01.3 peptide of 51.5 µM. As to KKIVTILKKLVK-NH2 [P01.1 peptide], the Kd with P01.1 peptide turned out to be 769 µM.
